Reference: patent US20190382738A1

What was measured:
B-Raf kinase, P15056 [1] = target: T1, B-Raf kinase, P15056; experiment: intrinsic fluorescence titration, column head Kd (ITF) (µM)
T1 chain: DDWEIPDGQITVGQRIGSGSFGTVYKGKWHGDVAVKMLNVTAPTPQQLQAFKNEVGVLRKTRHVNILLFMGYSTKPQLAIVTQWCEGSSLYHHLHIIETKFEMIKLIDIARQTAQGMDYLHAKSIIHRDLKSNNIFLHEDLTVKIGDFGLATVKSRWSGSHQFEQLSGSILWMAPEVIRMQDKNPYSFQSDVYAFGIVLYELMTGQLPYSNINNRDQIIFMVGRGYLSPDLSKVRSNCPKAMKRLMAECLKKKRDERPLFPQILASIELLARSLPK

B-Raf kinase, P15056 [2] = target: T1, B-Raf kinase, P15056; experiment: isothermal titration calorimetry

Q: LRKTRHVNI (modifications not checked) [6257] was tested. Which Kd (B-Raf kinase, P15056 [1]) did it give?
A: 0.02 µM

Q: GVLRKARHVNILLFMGYST (modifications not checked) [Peptide corresponding to SEQ ID NO: 8] was tested. Which ΔS (B-Raf kinase, P15056 [2]) did it give?
A: -28.4 J/mol·K
